According to the DeepSol protein solubility set:

Assay: soluble on expression in E. coli; label from the status in PepcDB or PDB records

Row | Sequence | soluble on expression in E. coli
1 | MGSDKIHHHHHHMHIVDVTMFYAPASGGVRTYLQAKREILSQVPGLRTSLLVPGAERDSLGNHHTLPALRLPLGQGYRFPLRARLWRDALGALAPDIIEAGDPYVTAWAALDASQRLGVPVVGFYHSDLPRLMGDRFGRQVGRRLERYVVNLYRRFDSVLAPCQAMADRLRDWGIDQVRVQPLGVDLQRFHPSCKDPALREELGLAPETRLLVFIGRNSREKNIDILLATMKRLGNGYHLLLIGPGMPRQVPANVTSFDRCCGIYEVARVLASSDAMLHAGTRETFGLIAQEAMASGIPVVGAKAGALKENVPLGAGILCRPLDPEAMADACQSLFRNDVVASGRYARRYVELHFSWESAMKNLLEHYRQLCASSELHVIPQKA | not soluble
2 | MGSDKIHHHHHHMHMLLSERISLMIRGGYVGRNPNTGKLQQHLQNGYERLQKGDLDAKRFDGAESTAHSMAIIGCSGSGKTTSLRRILNTYPQVIFHPTLNRHQIVYLKIDCSHDGSLKELCLNFFRAIDKVIGSNYEKKYGMKRHGVETMLALMAQTANMFALGLLVIDEIQHLSRAKSGGSEKMLNFFVTMSNTIGIPVLFVGTPKARDIFDLDLRSSRRAAGLGSIFWNPISQYLPDQKSQNPEWIAFTNTLWKLQYLQKRDPILSDEIRDTWFDLSQGILDIVVKLFILAQLRALATGAEKITVELLKRVYEDELKLVHPMLSALRSGIPERIAQFSDLAVPDMDKKIIHLIQKISASTVESEEDRALKQLSNDDQRRIYLMLKDEFPSDSIIFAIQKIVELKPQISRQQLLASIIQAMETDNTTSQVTVTKKKNQRIGLKQWNELEDTDLRHIFSMNSTSPESIYTQLNHHGLILQMSDLLS | not soluble
3 | MGSDKIHHHHHHMHRSKAALVLAGGGVAGAAYEIGALCAIDQVLEHLSVNEFDVYVGTSAGALISACLANNMSPRTLISVLESSLLGIDQLEPHHLYQLNITDLLYRAAHLPGALVQAIQRWVREGGEVSLLDLIETVAVGLPTGLYDSRSLEQYLRAALEQPGRSNRFADLDHELMIVATDLDTGERAIFGLPPLDNVPISLAVCASAAIPIFYRPVRIGDHDYIDGGLRGTASLDVAIERGAELIVCINPMVPFDNRRHPPGAAISDQGIQRIGNQVFRTFIHAGLHYHIKQVRRRHPEVDIILIEPSRQDRTMFAENTMRFHTRMTIARHGFESVARQLCEHYPYYRAMLARHGITISDERIRQDLRNLQMAGDNPHLVRAALVTGGSLHTAPAGLASTLAELDRLLSRLEVTR | not soluble
4 | MGSDKIHHHHHHMHSSEIRYFLVVATTGSLSAASQHLFVAVSAISRQIQRLEERIGVPLFERHARGMVLNDAGRILENHVRKSMMDMDAAVAEIQGLKASRRALLRIGCTEGMAFDLLPTLFARFRQHDPDTTFALKVDSAMQVSQMIRNGEVDIALQFALAPEQGVNVELALPAPLMLLMSDEHPLAQQSIQLADLHPFPLALPESSTTLRQLFDLSCRMNGTFLEPTLCCNNFTTLYYYAMSTPGAVTACSFYSVMYKCLQEPMRLKPLNIKQLDQRSLQIQTLAGKAHAPQQQAFLDFMMAELRQGEAYYLSHMATDMV | not soluble
5 | MGSDKIHHHHHHMHTESIKTPTDNHAKGAVSSTVSPTTYTPDLPSDEEDYSTLINMLPPVAPSSTPTEDESTESDNMPTDALHDFSQSLETQYGIAPGVNIQQQRQQRAEANGLTFACVGRQPVDDIWQIYPARKHKLEAYSLALDIAESVGLERYVEHVVNTPVDYAYRMLPLENAVENEMVKMCYDLLMLLQTVDSTSYPSVSITLSFLLDAEKIDDVTLVKLFRLIRLVRYIRQGAHHDNV | not soluble
6 | MGSDKIHHHHHHMHYEHSRKGNHMIKINHLTITQNKDLRDLVSDLTMTIQDGEKVAIIGEEGNGKSTLLKILMGEALSDFTIKGNIQSDYQSLAYIPQKVPEDLKKKTLHDYFFLDSIDLDYSILYRLAEELHFDSNRFASDQEIGNLSGGEALKIQLIHELAKPFEILFLDEPSNDLDLETVDWLKGQIQKTRQTVIFISHDEDFLSETADTIVHLRLVKHRKEAETLVEHLDYDSYSEQRKANFAKQSQQAANNQRAYDKTMEKHRRVKQNVETALRATKDSTAGRLLAKKMKTVLSQEKRYEKAAQSMTQKPLEEEQIQLFFSDIQPLPASKVLVQLEKENLSIDDRVLVQKLQLTVRGQEKIGIIGPNGVGKSTLLAKLQRLLNDKREISLGFMPQDYHKKLQLDLSPIAYLSKTGEKEELQKIQSHLASLNFSYPEMQHQIRSLSGGQQGKLLLLDLVLRKPNFLLLDEPTRNFSPTSQPQIRKLFATYPGGLITVSHDRRFLKEVCSIIYRMTEHGLKLVNLEDL | not soluble
7 | MGSDKIHHHHHHMIDLHCHILPNIDDGAKSIDEAIALVALAAEQGVSRMVATPHIHLGIYDNNLQSINAAYHLLCDALALTNIDIQLRAAAEVRVSPEIMLFIEQQQLPFLGRYQQKDVLLLELPSSHIPPGTDKLISWLLAKNVLPMIAHPERNRELQSHPERITPFVRAGCLFQLTAASLIGDMGEAPKQLSEYFIKQKLYSIIGSDCHSLNRRPPKLLQAQHAVTALTDQEYAFALTTSMPGSISNVLFAESSD | not soluble
8 | MGSDKIHHHHHHMIDLKQYEFWFLVGSQYLYGLETLKKVEQQASKIVDSLNDDPIFPSKIVLKPVLKSSSEITEIFEKANADPKCAGVIVWMHTFSPSKMWIRGLSINKKPLLHLHTQYNREIPWDTIDMDYMNLNQSAHGDREHGFIHARMRLPRKVVVGHWEEKEVREKIAKWMRVACAIQDGRMGQIVRFGDNMREVASTEGDKVEAQIKLGWSINTWGVGELAERVKAVPEREVEELLKEYREKYIMPEDEYSLKAIREQAKIEIALREFLKEKNAVGFTTTFEDLHDLPQLPGLAVQRLMEEGYGFGAEGDWKAAGLVRAIKVMGTSLPGGTSFMEDYTYHLTPGNELVLGAHMLEVCPTIAKEKPRIEVHPLSIGGKADPARLVFDGQEGPAVNASIVDMGNRFRLVVNKVLSVPIERKMPKLPTARVLWKPLPDFKRATTAWILAGGSHHTAFSTAIDVEYLIDWAEALEIEYVVIDENLDLEDFKKELRWNELYWGLLKR | not soluble
9 | MGSDKIHHHHHHMIHLSPNDLPVGAPLPWSLLDGDGNLVLGSGNVIPDTRDVALVFRHGELCRLEADSGGDPQDDPLPRGPLGLQVGTLLHVKQPGDNSRAAASRLIGFVEQGLFMTWPQLGGRDLPVQAGDTLLLRGFSGRVIHSFTSTITAVCRSPFRYLVLSAPSQLDQMPVRKAARVPTRMAAYMTQSQESFQEADQDAFSAEMANGAARLVMVSDLSTGGAQIHAAGPAPVIGSRVQLRFRLRTASLDSEIVADAWVRAVTSDTADAEFPSFGISFDVLGEREMTLLQCFIYEQLLTSSGLGVHR | not soluble
10 | MGSDKIHHHHHHMIHTLQAQSNEITIPFAELDLLSHLTSEFEPKLFQQKIERLHQLDPGHPLPGIAKAYAFFHEQNFSAARRQLEQARSETGDHVRAHLLLGLMSEVENFQHEAERHFLDALSLFPEEPSVHRHLAVHYHEREFFGEAASHALQYLKKIGPGGEGTLMTIDMMQSMPGHDEHVLESLYSLLFEIPEHHHDMVFHSIAANNAEMRYELFHQALDGEPDEATVFRLDSMLSLMVEHSMWAAVYDQTKDRMCRTVFDTLCRDLTYRHAGIRSIPLYLTIRSRYFMRCLLHRS | not soluble
11 | MGSDKIHHHHHHMIILVGGEKGGSGKSCLAQNIAVFLTNEVQASVIMVDCDPQRTTSDWIQARNNNPKLPAINCVQLYGKIRNDLLSLEQHYDYVVVDCGGQDNLALRATMSVASYVLMPLRPKRRDLKTVSHMDDIVSTCLMINPKMKASFVITQCPSLPNQASRITEAKDVCRTYDINVLDAVNYCRNIYDDSEESGLSVFELEPQGKAADEMRSIACELLDITDAKQLIEQRNTASNVTPMRGNYGTSRSQEKRFVM | not soluble
12 | MGSDKIHHHHHHMIITPDTLKALFTGFKKNFQDGLKMAESQYKEIATVIPSSTASNTYGWLGQWPAFREWVGDRVFQDMKAHGYAITNKHFESSVKVNRNDIEDDNVGIYAPMMTEMGRASAVHPDELVFALLKNAHATLCYDGQNFFDTDHPVYEKVDGTGQASTVSNIFAGSEAAWYLLDTTRALKPLIYQERKAKQFTAMTADTDEGVFMRNEYRYGVDGRCNVGLGFWQMAAKSQEKLDAAGFEKAYNAMVSLKGDGGRPLAIRPNVLLVPPALENAAKELVEGDRLANGAYNPNKGKAKVIVSPWLL | not soluble
